From the nanobody polyreactivity screen of Harvey et al. (2022)

Experiment: yeast display, Sf9 membrane polyspecificity reagent, FACS + sequencing; frameworks hold sequencing errors
Summary of the method: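 A synthetic nanobody library was expressed on Saccharomyces cerevisiae BJ5465 by galactose induction for 36–48 hours. The library was stained for 1 hour at 4 °C with 10% biotinylated, detergent-solubilized Sf9 membrane reagent and enriched with streptavidin microbeads before FACS. Low and high (top ~1%) gates were set on anti-HA fluorescence for expression and streptavidin fluorescence for reagent binding, and each polyreactivity label reflects the gate of origin.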

Sequence	polyreactivity (PSR sort gate)
QVQLVESGGGLVQAGGILRLSFAASGSTFYPNTMGWYRQAPGKERELVAAITNGGSTNYADSVKGRFTIARDNAKNTVYLQMNSLKPEDTAVYDCAADGYDQWGRDVVYLIWTSYDYWGQGTQVTVSS	high polyreactivity
QVQLVESGGGLVQAGGSLRLSCAASGSTFYAYAMGWYRQAPGKERELVAAISGSGGRTYYADSVKGRFTISRDNAKNTVYLQMNSLKPEDTAVYYCAASLTSRLPDPPRYYWGQGTQVTVSS	high polyreactivity
QVQLVESGGGLVQAGGSLRLSCAASGFTFTAYAMGWSRQAPGKERELVAAISSGGSTYYADSVKGRFTISRDNAKNTVYLQMNSLKPEDTAVYYCAAVGVYTVKREYWGQGTQVTVSS	low polyreactivity
KGQHVESGGGLVQAGGRLRLSCAASGSIFRYNAMGWDRQAPGKEREFVAAISWSGGRTFYADSVKGRFTISRDNAKNTVYLQMNSLKPEDTAVYYCAARSSRTTRQGYDYWGHGTQVTVSS	high polyreactivity
QVQLVESGGGLVQAGGSLRLSCAASGRIFARYAKGWSRQAPGKERELVAAISRGGSTKNADSVKGRFTISRDNAKITVYLQMNSLKPEDTAVYYCATEYYGPVYDLDYDYWGQGTQVTVSS	low polyreactivity
QGQLVESGGALVQAGGSLRLSCAASGSTFVRNAMGWYRPAPRKERELVAAISNVGSTYYADSVKGRFTISRDNAKNTVYFQKNSLKPEDTAVYYCTKQLWYHKFNYWGQGTQVTVSS	low polyreactivity
QVQLVESGGGLVQAGGSLRLSCAASGSTFYWNAMGWYRQAPGKESEFVARISSRGGSTYYADSVKGRFTISRDNAKNTVYLQMNSLKPEDTAVYYCAARLRRTQTYSSGRPGDYWGQGTQVTVSS	high polyreactivity
QVQLVESGGGLVQAGGSLRLSCAASGRIFYTNAMGWYRQAPGKERELVAGITGSGDSTYYADSVKGRFTISRDNAKNTVYLQMNSLKPEDTAVYYCAARWRYVLMDYWGQGTQVTVSS	low polyreactivity
QVQLVESGGGLVQAGGSLRLSSAASGSTFSLNAMGWYRQAPGKERELVASISSGDSTNYADSVKGRFTISLDNAKNTVYLQMNSLKPEDTAVYYCAADGWVLSLARGYYTYDYWGLGTQVTVSS	low polyreactivity
QVQLVESGGGLDQAGGSLRLSCAASGSIFPFYAMGWYRQAPGKERELVAAISSRGGSTYYADSVKGRFTISRDNAKNTVYLQMNSLKPEDTAVYYCAARDYSIKVRLGYWGQGTHVTVSS	low polyreactivity
QVQLVESGGGLVQAGGSLRLSCAASGRIIDRNDMGWYRQAPGKERELVAAISSSGSTNYADSVKGRFTISRDNAKNTVYLQMNSLKPEHTAGYYCADRWRSVLASGTRPVSFDYWGQGTQVTVSS	low polyreactivity
QVQLVESVGGLVQAGGSLRLSCAASGSTFTAYAMGWYRQAPGKERELVAAITSGGSKNYADSVKGRFTISRDNAKNTVYLQMNSLKPEDTAVYYCNADDYWLDSWSSFLWYDYWGQGTQVTVSS	low polyreactivity
QVQLVESGGGLVQAGGSLRLSCAASGFTFYIYAMGWYRPAPRNERELLAAITGSGGRTYYADSVKGRFTISRDYAKNTVYLQMNRLKPEETAVYYSNVLLQRVYGTEPSFDYWGQGTQVTVSS	high polyreactivity
QVQLVESGGGLVQAGGSLRLSCAASGIIFPTYAMGWYRQAPGKERELVAAITSGGSTYYADSVKGRFTISRDNAKNTVYLQMNSLKPEDTAVYYCAAAYLGYGAVQPSYEGGYWGQGTQVTVSS	low polyreactivity
QVQLVESGGGLVQAGGSLRLICAASGSTFGRNAMGWSRQAPGKERELVAAISSGGRTYYADSVKGRFTSSRDNAKHTVYVQLNSLKPEDSAVYYCARDDYGTLVKLYVRGFNYWGQGTQVTVSS	low polyreactivity
QVQLVESGGGLVQAGGSLRLSCAASGFTFGEYAMGWYRQQPGKERELVAAISSSSGSTYYADSVKGRFTISRDNAKYTVYLQMNSLKPEDTAVYYCAATTSPRSARYYYWGQGTQVTVSS	high polyreactivity
QVQLVDSGGGLVQAGGSLRLTCAASGRTFYGNAMGWYRQAPGKERELVATINYSGGSTYYADSVKGRFTISRDNAKNTVYLQMNSLKPEDTAVYYCAADDPEEFDYWGQGTQVTVSS	low polyreactivity
QVQLVESGGGLVQAGGSLRLSCAASGSIFYSYAMGWYRQAPGKERELVAAISYSSGSTYYADSVKGRFTISRDNAKNTVYLQMNSLKPEDTAVYDCAAEGNGWQVDVTEVGEYDSWGQGTQVTVSS	high polyreactivity
QVQLVESGGGVVQAGGSLRLSCAASGSTFARKAMGWYRPAPGKERELVAAITYSGGRTYYADSVKGRVTISRDNAKNTVYLQMNRLKPVDTAVYYCAVKSFSGHGDYWGQGTQVTLSS	low polyreactivity
QVQLVESGGGLVEAGGSLRISCAASGYIFLRNAMGWYRQAPGKERELVAAIRRTGGSTYYADSVKGRFTISRDNAKNSVYVQMNSLKPEASAVYYCAKRSYTGYEYWGQGNQVTVSS	low polyreactivity
QVQLVESGGGLVQAGGSLLLSCAATGITFVPNAMGWYRQAPGKERELVDAISTRGGSTYYADSVKGRFTISRDNAKNTVYLQMNSLKPEDTAVYYCNALITGRWFDYWGQGTQVTVSS	high polyreactivity
QVQLVESGGGLVQAGGSLRLSCAASGNIFATYAMGWYRQAPGKESELVAAITSSGGRTYYADSVKGRFTISRDNAKISVYLQMNSLKPEDTAVYNCNAVYSLYYTRYNYWGHGTQVTVSS	high polyreactivity

Sequence	polyreactivity (PSR sort gate)
QDQLVESGGGLVQAGGSLRLTCAASGFIFYHYAMGWYRQAPGKERDLVAAINWSGGSTYYADSVKGRFTISRDNAKKTDYLQMNSLKPEDTAVYYCAAYSTAWYWPGKFDYWGQGTQVTVSS	high polyreactivity
QVQLVESGGGLVQAGGSLRLSCAASGSTSALYAMGWYRQAPGKERELVATITRSGTTKYADSVKGRFTISRDNAKNTVYLQMNSLKPEDTAVYYCNTDTYFPLYDYWGQGTQVTVSS	low polyreactivity
QVQLVESGGGLVQAGGSLRLRCAASGSTIRCYAMGWYRQAPGKERELVAAIRRGGSTYYADSVKGRFTISRDNAKNTVYLQKNSLKPEVTAVYYCAAEPGYYSRQDYRVYRLYYWGQGTQVTVSS	high polyreactivity
QVQLVESGGGLVQAGGSLRLSCAASGGTFTTNAMGWYRQAPGKERELVAAITSSGVRTYYADSVKGRFTISRDNAKNTVYLQMNSLKPEDTAVYYCNAVTRYVRLTDDDYWGQGTQVTVSS	high polyreactivity
QVQLVESGGGLVQAGGSLRLSCAASGSISWKYAMGWSRQAPGKERELVAAISWSGSSTYYADSVKGRFTISRDNAKNTVYLQMNSLKPEDTAVYYCAADRVSRLTNRREYWGQGTQVTVSS	high polyreactivity
QVQLVESGGGLVQAGGSLRLSCAASGLIFYFNGMGLYRQAPGKERELVASISASGDRTYYADSVKGRFTISRDNAKNTVYLQMNSLKQEDTAVYYCATDANTYTKYDYWGQGTQVSVSS	low polyreactivity
QVQLVESGGALVQAGGSLRISCAASGLIITHYAMGWYRQAPGKEMELVAAISNGGSTNYADSEKGRFTISRDNAKNTVYLEMNSLKPEDTAVSFCNARPNKYYAYPATRGKYYYWGQATQVTVSS	low polyreactivity
QVQLVESGGGLVQAGGSLRLSCAASGSIFFLYAMGWYRQAPGKERELVAAISRDGRTNYADSVKGRFTISRDNAKNTVYLQMNSLKPEDTAVYYCAKDGNHPGAVGYGYWGQGTQVTVSS	low polyreactivity
QVQLVESGGGLVQAGGSLRLSCAASGRIFKSYAMGWYRQAPGKERELVASIRTGGTTNYADSVNGRFTISRDNAKNTVYLQMNSLKPEDTAVYDCNRGYYSYYGRYYYWGQGTQVTVSS	high polyreactivity
QVQLVESGGGLVQAGGSLGLSCAASGIIFGTYGMGWYRQAPGKERELVAAITTRGSSTYYADSVKGRFTISRDNAKNSVYLQMNSLKPEDTAVYYCAAVSVRRNRMDSWGQGTQVTVSS	high polyreactivity
QVQLVESGGGLVQAGGSLRLSCAASGSTFGIYPMAGNRTEPGKERELVAAISSGGSTNYADSVKGRFTISRDNAKNSVYLQMNSLNPEDTAVYYCAVESVYEYGGYVDSAYDYWGQGTQVTVSS	low polyreactivity
QVQLVESGGGLVQAGGSLRLSCAASGRIFSHTVMGWYRQAPGKEGELVADISSSGGSTYYADSVKWRFTISRDNAKNTVDFQKNSLKPEYTAVYYCAAAPWASGTDEYWGHGTQVTVSS	low polyreactivity
QVQLVESGGGLVQAGGSLRLSCAASGFTFSGYSMGWYRPAPGKERELVAAITKSGGSTYYADSVKGRFTISRDTAKNTVYLQMNSLKPEDTAVYYCNADVLYTTEGDYWGQGTQVTVSS	high polyreactivity
QGQLVESGGGLGQAGGSLRLSCAASGSTVVLYAMGWYRQARGKERELVAAISGGATTTYADSVKGRFTISRDNAKNTVYLQMNSLKPEDTAVYYCAADFSTFVLSGAAMDYWGQGTQVTVSS	low polyreactivity
QVQLQESGGGLVQAGGSLRLSCAASGNISVTGFMGWYRQAPGKERELVASIGIGGTTYYADSVKGRFSISRDNAKNTVYLQMNSLKPEDTAVYYCAARVIYYYGSGPYDYWGQGTQVTVSS	low polyreactivity
QVHLVESGGGLVQAGGSLRLSCAASGRIFSRNAMGWYRQAPGKERELVASITRGGSTYYADSVKGRFTISRDNAKITVYLQMNSLKPEDTAVYYCAAVFYDRGQRYNYWGQGTQVTVSS	high polyreactivity
QVQLVESGGGLVQAGGSLRLSCAASGSIFGLYAMGCYRQAPGKERELVAAITWSSGNTYYADSVKGRFTISRDNAKNTVYLQMNSLKPEDTAVYYCAAEQIYFVYWEDDYWGQGTQVTVSS	high polyreactivity
QVQLVESGGGLVQAGGSLSLSCAASGFTFGRNAMGWYRQAPGKERELVASIDWSGGSTYYADSVKGRFTISRDNAKNTVYLQMNSLKPEDTAVYYCAVGPNSVGNRSYGFDYWGQGTQVTVSS	low polyreactivity
QVHLVESGGGLVQAGGSLRLTCAASGSIFLWNAMGWYRQAPGTEREVVAAITWRGGSTYYADSVKGRFTISRDNEKYTVYLQMNSLKPEDTAVYYCAADSYDWMDYWGQGTQVTVSS	low polyreactivity
QVQLVESGGGLVQAGGSLRLSCAASGSIFPPYVMGWYRQAPGKERELVASITTSGGSTYYADSVKGRFTISRDNAKNTVYLQIKSLKPEDTAVYYCAARWYYGGKSAGPGGGYWGQGTQVTVSA	low polyreactivity
QVQLVESGGGLVQAGGSLRLSCAASGLIFGFYAMGWYRQAPGKEWELVAAINSGGITYYADSVKGRFTISRDNAKNTVYLQMNSLKPEDTSVYYCAAVHSRRARYDYWGQGTQVTVSS	low polyreactivity
